Earlier results on one substance are cited in PMC13292882.

The target of one data set is PCNA (Homo sapiens) (UniProt P12004). The settings on record: cited from earlier work.
For a further data set, the target named is RPA (Homo sapiens) (UniProt P27694). The experiment in a line: competition peptide displacement. The note with it: cited from earlier work.
Chain of RPA (Homo sapiens) (P27694 2-616, chain 1 of 3): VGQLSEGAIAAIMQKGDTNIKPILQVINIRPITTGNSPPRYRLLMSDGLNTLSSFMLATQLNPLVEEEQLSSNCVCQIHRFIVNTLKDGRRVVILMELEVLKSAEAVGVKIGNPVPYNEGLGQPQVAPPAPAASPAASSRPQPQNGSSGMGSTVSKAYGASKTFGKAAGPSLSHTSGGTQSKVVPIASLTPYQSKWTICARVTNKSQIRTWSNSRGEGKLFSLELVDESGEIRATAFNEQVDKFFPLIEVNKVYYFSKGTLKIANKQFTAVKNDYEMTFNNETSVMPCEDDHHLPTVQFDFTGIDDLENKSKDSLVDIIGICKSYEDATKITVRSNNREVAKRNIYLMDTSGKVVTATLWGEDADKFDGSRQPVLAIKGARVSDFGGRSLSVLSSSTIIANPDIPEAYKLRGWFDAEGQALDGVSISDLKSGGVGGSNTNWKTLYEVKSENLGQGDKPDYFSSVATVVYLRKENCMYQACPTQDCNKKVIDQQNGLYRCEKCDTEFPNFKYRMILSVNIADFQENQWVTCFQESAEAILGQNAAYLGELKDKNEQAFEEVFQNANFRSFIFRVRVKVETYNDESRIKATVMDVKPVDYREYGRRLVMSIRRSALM
Chain of RPA (Homo sapiens) (P15927 whole entry, chain 2 of 3, further chain): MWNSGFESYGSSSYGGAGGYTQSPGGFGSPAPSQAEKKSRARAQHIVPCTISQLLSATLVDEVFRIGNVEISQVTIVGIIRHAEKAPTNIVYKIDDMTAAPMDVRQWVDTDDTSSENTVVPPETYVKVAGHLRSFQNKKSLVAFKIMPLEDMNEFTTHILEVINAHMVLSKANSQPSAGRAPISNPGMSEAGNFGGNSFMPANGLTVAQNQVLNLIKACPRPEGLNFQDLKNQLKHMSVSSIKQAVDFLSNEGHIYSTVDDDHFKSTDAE
Chain of RPA (Homo sapiens) (P35244 2-121, chain 3 of 3, further chain): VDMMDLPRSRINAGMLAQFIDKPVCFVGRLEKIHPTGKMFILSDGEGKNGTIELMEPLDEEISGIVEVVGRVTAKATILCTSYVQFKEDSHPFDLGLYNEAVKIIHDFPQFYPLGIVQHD

Chain of UNG2 (P13051 whole entry): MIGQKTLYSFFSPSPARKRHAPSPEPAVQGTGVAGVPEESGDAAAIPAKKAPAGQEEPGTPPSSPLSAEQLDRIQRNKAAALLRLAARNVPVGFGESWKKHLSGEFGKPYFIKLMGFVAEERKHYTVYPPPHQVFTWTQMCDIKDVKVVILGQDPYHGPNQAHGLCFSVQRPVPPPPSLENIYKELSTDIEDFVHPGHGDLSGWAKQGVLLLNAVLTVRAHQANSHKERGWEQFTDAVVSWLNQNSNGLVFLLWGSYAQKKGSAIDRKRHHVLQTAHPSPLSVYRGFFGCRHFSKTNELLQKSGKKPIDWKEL
Chain of PCNA (Homo sapiens) (P12004 whole entry): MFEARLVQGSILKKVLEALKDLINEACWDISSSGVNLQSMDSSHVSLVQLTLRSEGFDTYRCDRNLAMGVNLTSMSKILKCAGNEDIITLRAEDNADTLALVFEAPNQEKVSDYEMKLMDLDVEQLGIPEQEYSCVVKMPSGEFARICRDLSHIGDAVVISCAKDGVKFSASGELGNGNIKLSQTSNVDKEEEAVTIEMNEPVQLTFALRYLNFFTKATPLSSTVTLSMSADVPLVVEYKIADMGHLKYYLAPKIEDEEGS

Take UNG2 (from UniProt P13051): the Kd (commonly a measure of binding affinity in units of concentration) in the data set with PCNA (Homo sapiens) was 1000 nM; with RPA (Homo sapiens) it was 3000 nM.
